Data taken from patent publication US20080072349A1 (PIONEER HI BRED INTERNATIONAL, published 2008).
Where a chain is given by its changes, count along the chain named.

B1: Rubisco Activase derived polypeptide 183H12 (enzyme)
chain: MVKEDKQTDGDRWRGLAYDTSDDQQDITRGKGMVDSVFQAPMGTGTHHAVLSSYEYVSQGLRQYNLDNMMDGFYIAPAFMDKLVVHITKNFLTLPNIKVPLILGIWGGKGQGKSFQCELVMAKMGINPIMMSAGELESGNAGEPAKLIRQRYREAADLIKKGKMCCLFINDLDAGAGRMGGTTQYTVNNQMVNATLMNIADNPTNVQLPGMYNKEENARVPIICTGNDFSTLYAPLIRDGRMEKFYWAPTREDRIGVCKGIFRTDKIKDEDIVRLVDQFPGQSIDFFGALRARVYDDEVRKFVESLGVEKIGKRLVNSREGPPVFEQPEMTYEKLMEYGNMLVMEQENVKRVQLAETYLSQAALGDANADAIGRGTFYGKTEEKEPSKLE
B2: Rubisco Activase derived polypeptide 214A4 (enzyme)
chain: B1 chain with M42T
B3: Rubisco Activase derived polypeptide 079H6 (enzyme)
chain: B1 chain with M42T, M131I, R274T, R293K
B4: Rubisco Activase derived polypeptide 301C7 (enzyme)
chain: B1 chain with F168L, V257I, R274T, K310N
B5: wild type Rubisco Activase (Arabidopsis, short form RCA1) (enzyme)
chain: B1 chain with R274T
B6: Rubisco Activase derived polypeptide 383A12 (enzyme)
chain: B1 chain with F168L, V257I, K310N
B7: Rubisco Activase derived polypeptide 301H3 (enzyme)
chain: B1 chain with V257I, K310N
B8: Rubisco Activase derived polypeptide 382D8 (enzyme)
chain: B1 chain with M131V, V257I, R274T, K310N
B9: Rubisco Activase derived polypeptide 182B11 (enzyme)
chain: B1 chain with M131I, R274T
B10: Rubisco Activase derived polypeptide 126H4 (enzyme)
chain: B1 chain with M130R, R274T
B11: Rubisco Activase derived polypeptide 184B2 (enzyme)
chain: B1 chain with R274T, K310N

target: T1, purified deactivated Arabidopsis Rubisco (Ribulose-1,5-bisphosphate carboxylase/oxygenase) (Arabidopsis, UniProt O03042 3-479; P10795 55-180); test: cell-based or functional assay

| Binder | Activation of deactivated Rubisco assay, T.S 45° C./25° C. | Activation of deactivated Rubisco assay, T.S 45 min at 40° C./15 min at 25° C. | Rubisco activation under catalytic conditions assay, T.S 40° C./25° C. |
| --- | --- | --- | --- |
| B1 | 52% | 54% | 77% |
| B2 | 58% | 65% | 74% |
| B3 | 63% | 66% | 82% |
| B4 | 84% | 92% | 83% |
| B5 | 50% | 32% | 67% |
| B6 | 92% | 88% | 97% |
| B7 | 89% | 75% | 78% |
| B8 | 86% | 85% | 93% |

target: T1, purified deactivated Arabidopsis …; test: cell-based or functional assay; remark: another data set of the same source

| Binder | Thermostability (%) |
| --- | --- |
| B1 | 82% |
| B9 | 84% |
| B2 | 92% |
| B3 | 88% |
| B10 | 97% |
| B4 | 98% |
| B5 | 66% |
| B6 | 103% |
| B7 | 89% |
| B8 | 90% |
| B11 | 84% |

target: T1, purified deactivated Arabidopsis …; test: cell-based or functional assay; remark: another data set of the same source

| Binder | activation state of Rubisco at 40° C. relative to reactions at 25° C. |
| --- | --- |
| B5 | 70% |
